From patent US20140099332A1 (IMMUNOGEN, published 2014)
Where “and” joins values, the source holds several entries; their conditions need not be identical. Equal values may be shown once. Values belong to the binder of their own block, whether it stands above or below them.

How the values were obtained:
[1] = molecular target: T1, human folate receptor 1 (FOLR1) on cells (human, UniProt P15328 25-234); test: laser scanning cytometry on cell lines, optimal dilution 1:200
T1 construct: also called FRA; huFolR1
Method: (§1) Three cell lines with varying levels of FOLR1 expression were selected as representative of high expression (KB), low expression (OVCAR3), and no expression (A549). Unlabeled FR1-9 and FR1-13, as well as a commercial anti-FOLR1 antibody (“commercial FRA”), were titrated, and optimal titrations were determined for each of the antibodies using laser scanning cytometry (LSC) detection on the selected cell lines. […] Optimal dilutions were identified for each antibody as follows: 1:5 for commercial FRA, 1:100 for muFR1-9, and 1:200 for muFR1-13.

[2] = molecular target: T1, human folate receptor 1 (FOLR1) on cells; test: indirect flow cytometry, T47D cells, Alexa-488 goat anti-mouse
Method: (§2) To assure that materials were continuously performing as expected, all antibodies were screened for binding by both ELISA and flow cytometry methods known in the art. Flow cytometry was performed using FOLR1 expressing human T47D cells cultured using in-vitro cell culture techniques known in the art. The antibodies were bound to these cells and detected indirectly using a goat anti-murine Alexa-fluor 488 detection antibody on a FACScalibur machine (FIG. 6A-B).

[3] = molecular target: T2, human FolR1-Fc fusion protein (human; mouse, UniProt P15328 25-233); test: sandwich ELISA (Folate ELISA): 1 ug/ml FR1-64, 1 ug/ml FR1-13-Biotin, FOLR1-Fc titrated
T2 construct: The construct encodes the 233 amino acids from the N-terminal signal peptide to just upstream of the GPI linkage site; also called huFOLR1-Fc; human folate receptor 1 Fc fusion molecule; not shown: residues encoded by the Pst1 to BamHI oligonucleotide linker

FOLR2 = molecular target: T3, FOLR2 (UniProt P14207 17-230, limits assumed); test: ELISA on FOLR2-His antigen, antibody titrated ([Ab] (M)); positive control FR2 Ab reaches about 0.42 [left graph (FOLR2-His]
T3 construct: also called folate receptor 2

[4] = molecular target: T4, FOLR1 (antigen of the screening ELISAs, form not stated) (human, UniProt P15328 25-234); test: competition ELISA: serial concentrations of competing murine clone against a constant concentration of (biotinylated) muFR1-13
T4 construct: It may be the FOLR1-Fc fusion; also called the same antigen; the target

[5] = molecular target: T2, human FolR1-Fc fusion protein; test: sandwich ELISA: Mu FOLR1-13 coated on the plate, FOLR-Fc fusion titrated, detected with Hu Mov19 and polyclonal goat anti-human HRP
FOLR3 = molecular target: T5, FOLR3 (human, UniProt P41439 23-245, limits assumed); test: ELISA with FOLR3-His antigen titrated ([Ag ug/ml]); positive control reaches about 2.6 after 3 min development [right graph (FOLR3-His]
T5 construct: also called folate receptor 3

[6] = molecular target: T1, human folate receptor 1 (FOLR1) on cells; test: apparent binding affinity 'by both methods': flow cytometry on T47D cells and ELISA; lower end of the range given for FR1-13; flow cytometry on T47D cells and ELISA
Method: as §2

[7] = molecular target: T1, human folate receptor 1 (FOLR1) on cells; test: apparent binding affinity 'by both methods': flow cytometry on T47D cells and ELISA; upper end of the range given for FR1-13; flow cytometry on T47D cells and ELISA
Method: as §2

[8] = molecular target: T1, human folate receptor 1 (FOLR1) on cells; test: laser scanning cytometry on cell lines, optimal dilution 1:100
Method: as §1

[9] = molecular target: T2, human FolR1-Fc fusion protein; test: sandwich ELISA (FOLR1 ELISA): clone coated on the plate as capture antibody, FOLR-Fc fusion titrated, format as in FIG. 1
Method: The 40 clones were alternatively coated onto the assay plate in place of muFR1-9 in the diagram, and the resulting binding curves were analyzed shown in FIG. 5. Antibodies that contained the lowest half-maximal response (EC50) were considered to have the highest binding specificity to FOLR1, and thus were chosen as the top candidates for the assay.

[10] = molecular target: T1, human folate receptor 1 (FOLR1) on cells; test: apparent binding affinity 'by both methods': flow cytometry on T47D cells and ELISA; unit M taken from the preceding value; lower end of the range given for FR1-9; flow cytometry on T47D cells and ELISA
Method: as §2

[11] = molecular target: T1, human folate receptor 1 (FOLR1) on cells; test: apparent binding affinity 'by both methods': flow cytometry on T47D cells and ELISA; unit M taken from the preceding value; upper end of the range given for FR1-9; flow cytometry on T47D cells and ELISA
Method: as §2

T5 sequence (P41439 23-245 limits assumed): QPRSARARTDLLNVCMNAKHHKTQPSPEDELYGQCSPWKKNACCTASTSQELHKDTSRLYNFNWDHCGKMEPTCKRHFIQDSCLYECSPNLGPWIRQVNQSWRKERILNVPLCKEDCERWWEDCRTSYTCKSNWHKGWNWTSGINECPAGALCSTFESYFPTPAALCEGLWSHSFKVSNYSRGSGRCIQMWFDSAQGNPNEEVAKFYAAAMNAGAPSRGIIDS
T2 sequence (P15328 25-233): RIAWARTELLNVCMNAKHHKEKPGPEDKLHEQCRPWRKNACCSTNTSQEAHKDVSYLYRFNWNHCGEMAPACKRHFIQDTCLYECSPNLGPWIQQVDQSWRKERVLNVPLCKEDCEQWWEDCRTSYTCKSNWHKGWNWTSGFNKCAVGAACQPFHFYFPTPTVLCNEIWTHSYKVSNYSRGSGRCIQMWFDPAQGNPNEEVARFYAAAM
T3 sequence (P14207 17-230 limits assumed): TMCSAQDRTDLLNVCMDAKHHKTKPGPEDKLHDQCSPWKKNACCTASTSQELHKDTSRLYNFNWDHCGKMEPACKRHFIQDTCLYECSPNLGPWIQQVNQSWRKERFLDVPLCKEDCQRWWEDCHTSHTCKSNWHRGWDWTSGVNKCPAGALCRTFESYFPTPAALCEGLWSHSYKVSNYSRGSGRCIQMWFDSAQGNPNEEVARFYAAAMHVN
T1 sequence (P15328 25-234): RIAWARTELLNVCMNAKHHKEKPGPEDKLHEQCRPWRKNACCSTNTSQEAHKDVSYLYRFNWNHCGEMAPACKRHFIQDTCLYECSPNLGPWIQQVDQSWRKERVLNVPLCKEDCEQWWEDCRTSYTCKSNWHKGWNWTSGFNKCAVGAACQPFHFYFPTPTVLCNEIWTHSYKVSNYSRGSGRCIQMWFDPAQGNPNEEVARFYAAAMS
T4 sequence (P15328 25-234 limits assumed): as the sequence (P15328 25-234) above

signal to background ration [1]: 4.19 | EC50 (read off the curve) [2]: ~1 nM and ~2 nM | EC50 (read off the curve) [3]: ~2 nM and ~3 nM | IC50 (read off the curve) [4]: ~0.07 µg/mL | EC50 (read off the curve) [5]: ~5 pM | Kd [6]: ≥ 1 nM | Kd [7]: ≤ 3 nM
B1: muFR1-13 (antibody, mouse IgG2b, kappa, V domains shown)
VH: QVQLKESGPDLVAPSQSLSITCTVSGFSLSRYSVHWIRQPPGKGLEWLGMIWSGGNTDYNSVFKSRLNITKDNSKSQVFLKMNSLQTDDTAIYYCATFDGKVSWFAYWGQGTLVTVSA
VL: SIVMTQTPKFLLVSTGDRFTITCKASQSVSNDVLWYQQKPGQSPKLLIYYAYNRYSGVPDRFTGSGYGTDFTFTITTVQSEDLAVYFCQQDHSSPFTFGSGTKLEIKR
notes: Murine monoclonal purified from hybridoma supernatant; also called muFR1-13b (biotinylated); Biotinylated FR1-13
binding result (FOLR2): no binding (tested: about 10^-8 M antibody) | binding result (FOLR3): no binding (tested: about 2.5 ug/ml antigen)

signal to background ration [8]: 4.07 | EC50 (read off the curve) [9]: ~4 pM | Kd [10]: ≥ 2 nM | Kd [11]: ≤ 4 nM
B2: muFR1-9 (antibody, mouse IgG1, kappa, V domains shown)
VH: QVQLVESGGGLVQPGGSRKLSCAASGFTFSSFGMHWVRQAPEKGLEWVAYISSGSSTFYYADTVKGRFTISRDNPKNTLFLQMTSLRSEDTAMYYCAKELTGTFAYWGQGTLVTVSA
VL: DIVLTQSPATLSVTPGDSVSLSCRASQSINNNLHWYQQKSHESPRLLIKYASQSISGIPSRFSGSGSGTDFTLSINSVETEDFGMYFCQQSNSWPQVTFGAGTKLELKR
notes: Murine monoclonal purified from hybridoma supernatant; Capture antibody of the sandwich ELISA; also called murine FR1-9
binding result (FOLR2): no binding (tested: about 10^-8 M antibody) | binding result (FOLR3): no binding (tested: about 2.5 ug/ml antigen)

EC50 (read off the curve) [9]: ~10 pM
B3: muFR1-62 (antibody, mouse IgG1, kappa, V domains shown)
VH: QVQLQQSGAELARPGASVKMSCKASGYTFTTYTMHWVKQRPGQGLEWIAYINPTSGYNNYNQKFKEKATLTADKSSSTAYMQLTSLTSEDSAVYYCASGGAYGRRPVDYWGQGTSVTVSS
VL: DIVMTQSQKFMSISVGDRVSVTCKASQNVGTNVAWYQQKPGQSPKTLIYSASSRYSGVPDRFTGSGSGTDFTLTISNVQSEDLADYFCHQYNSYPYTFGGGTKLEIKR
notes: Murine monoclonal; The full-length light chain differs from the VL by shifted residues
binding result (FOLR2): no binding (tested: about 10^-8 M antibody) | binding result (FOLR3): no binding (tested: about 2.5 ug/ml antigen)

EC50 (read off the curve) [9]: ~10 pM
B4: muFR1-53 (antibody, mouse IgG1, kappa, V domains shown)
VH: QVQLQQSGPELVRPGASVKMSCKASGYKFTDYDISWVLQRTGQGLEWIGEIYPGSGRTYYNERFKGKATLTADKSSNTVYMQLSSLTSEDSAVYFCASSYYYGTNSPFAYWGQGTTLTVSS
VL: DIQMTQTTSSLSASLGDRVTISCRASQDISNYLHWYQRKPDGTVKLLVYYTSRLQSGVPSRFSGSGSGTDYSLTISNLEQEDIATYFCQQGNSLPPTFGSGTKLEIKR
notes: The full-length chains differ from the variable domains by shifted residues
binding result (FOLR2): no binding (tested: about 10^-8 M antibody) | binding result (FOLR3): no binding (tested: about 2.5 ug/ml antigen)
